From patent US20140147439A1 (NVIP, published 2014)

Molecular target: T1, human complement C1q (from human serum) (human, UniProt P02745 23-245; P02746 28-253; P02747 29-245)
T1 construct: Native C1q in human serum diluted 1/100
Experiment: ELISA: antibody captured on NGF-coated plate, incubated with human serum, bound C1q detected with sheep anti-C1q-HRP, absorbance at 450 nm
Description: The plates were washed and then incubated with human serum and bound complement C1q was measured by binding of anti-human C1q polyclonal antibody HRP and developed as above.
Plates were coated with 100 μl/well of 5 μg/ml mouse NGF and blocked with 5% BSA/PBS. […] The plates were washed and incubated for 1 hour at room temperature with 100 μl/well of human serum diluted 1/100 in veronal buffered saline containing 0.5 mM MgCl₂, 2 mM CaCl₂, 0.05% Tween-20, 0.1% gelatin and 0.5% BSA. After washing, plates were incubated with 100 μl of a 1/800 dilution of sheep anti-C1q-HRP (Serotec) in PBS/1% BSA. After washing, plates were developed by the addition of 100 μl TMB substrate (Thermo Scientific). Development was stopped by the addition of 100 μl of 2NH₂SO₄ and absorbance read at 450 nm.

T1 sequence (P02745 23-245 limits assumed, chain 1 of 3): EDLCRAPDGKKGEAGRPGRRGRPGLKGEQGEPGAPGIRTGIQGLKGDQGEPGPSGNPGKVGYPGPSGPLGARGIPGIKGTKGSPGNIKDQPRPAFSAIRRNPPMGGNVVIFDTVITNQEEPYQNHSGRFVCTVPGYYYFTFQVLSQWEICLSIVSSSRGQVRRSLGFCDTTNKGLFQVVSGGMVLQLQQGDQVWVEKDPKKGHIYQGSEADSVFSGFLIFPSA
T1 sequence (P02746 28-253 limits assumed, chain 2 of 3): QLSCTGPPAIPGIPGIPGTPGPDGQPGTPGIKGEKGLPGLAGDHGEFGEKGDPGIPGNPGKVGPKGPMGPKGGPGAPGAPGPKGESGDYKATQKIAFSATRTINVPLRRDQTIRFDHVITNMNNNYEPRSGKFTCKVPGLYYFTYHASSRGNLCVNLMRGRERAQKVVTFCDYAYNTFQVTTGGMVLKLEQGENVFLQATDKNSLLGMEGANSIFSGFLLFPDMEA
T1 sequence (P02747 29-245 limits assumed, chain 3 of 3): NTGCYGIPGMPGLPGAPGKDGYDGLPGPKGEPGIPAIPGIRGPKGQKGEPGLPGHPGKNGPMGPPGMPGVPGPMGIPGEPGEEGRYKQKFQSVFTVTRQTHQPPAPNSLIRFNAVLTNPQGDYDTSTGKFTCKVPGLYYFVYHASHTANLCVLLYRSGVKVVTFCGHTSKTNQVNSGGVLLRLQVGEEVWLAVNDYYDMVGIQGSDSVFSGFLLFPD

B1: felinised anti-NGF monoclonal antibody (heavy chain SEQ ID NO:6, light chain SEQ ID NO:5) (antibody, IgG2)
heavy: QVQLVESGGDLVQPGGSLRLTCAASGFSLTNNNVNWVRQAPGKGLEWMGGVWAGGATDYNSALKGRFTISRDNAKNTLYLQMNSLKTEDTATYYCARDGGYSSSTLYAMDAWGQGTLVTVSSASTTAPSVFPLAPSCGTTSGATVALACLVLGYFPEPVTVSWNSGALTSGVHTFPAVLQASGLYSLSSMVTVPSSRWLSDTFTCNVAHPPSNTKVDKTVRKTDHPPGPKPCDCPKCPPPEMLGGPSIFIFPPKPKDTLSISRTPEVTCLVVDLGPDDSDVQITWFVDNTQVYTAKTSPREEQFNSTYRVVSVLPILHQDWLKGKEFKCKVNSKSLPSPIERTISKAKGQPHEPQVYVLPPAQEELSRNKVSVTCLIKSFHPPDIAVEWEITGQPEPENNYRTTPPQLDSDGTYFVYSKLSVDRSHWQRGNTYTCSVSHEALHSHHTQKSLTQSPGK
light: DIVMTQTPLSLSVTPGEPASISCRASEDIYNALAWYLQKPGQSPRRLIYNTDTLHTGVPDRFSGSGSGTDFTLRISRVEADDVGVYFCQHYFHYPRTFGPGTKLEIKRSDAQPSVFLFQPSLDELHTGSASIVCILNDFYPKEVNVKWKVDGVVQTKASKESTTEQNSKDSTYSLSSTLTMSRTEYQSHEKFSCEVTHKSLASTLVKSFNRSECQRE
notes: Felinised alphaD11 variable domains with a feline HC2 (IgG2) heavy chain constant region and a feline kappa constant domain; also called felinised antibody; felinised anti-NGF MAb
B1: no binding (tested: human serum diluted 1/100).
